Measurements from the supplement of paper PMC10567573.
± gives the standard deviation.

Test: protein stability index of a GFP-peptide fusion (GPS, HEK-293T) (PSI 1-6); higher = more stable
[1] = treatment: DMSO, c terminus: a fixed tail appended
[2] = treatment: MLN4924 1 uM, 8 h, c terminus: a fixed tail appended
[3] = treatment: DMSO, c terminus: native
[4] = treatment: MLN4924 1 uM, 8 h, c terminus: native
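Further: 24-mer peptide tiles fused after GFP, lentivirally expressed, FACS-sorted into six equal bins by GFP/DsRed ratio, decoded by Illumina sequencing, PSI is the read-weighted mean bin number.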

Sequence | protein stability index [1] | protein stability index [2] | protein stability index [3] | protein stability index [4]
QELVLKVRIQNPSLRENDFIEIEL [ANKRD40] | 2.68 ± 1.1 | 2.38 ± 1 | – | –
YVASHKIEKEEQEKKRKEEEERRR [ACBD3] | 3.2 ± 1.1 | 4.37 ± 0.73 | – | –
VSYQLADGGEPQSVQVDGQARTQK [TNXB] | 5.184 ± 0.024 | 5.21 ± 0.1 | – | –
YQVHDYLRSKLCSLYENDCIFDKF [PPP2R2B] | 2.58 ± 0.71 | 2.27 ± 0.48 | – | –
IGTQGPLENTYRDFWLMVWEQKVL [PTPN9] | 2.31 ± 0.24 | 1.79 ± 0.29 | – | –
TGSYNNFFRMFDRNTKRDVTLEAS [PPP2R2B] | 3.1 ± 0.26 | 3.47 ± 0.33 | – | –
LNKPALQAQPLRTTSTLASSLPGH [EHMT1] | 3.81 ± 0.14 | 3.91 ± 0.28 | – | –
TSVQEADETTRSDISERPSVDDIE [C2CD2L] | 5.57 ± 0.27 | 5.61 ± 0.19 | – | –
NEYFFDRNRPSFDAILYYYQSGGR [KCNA3] | 2.34 ± 0.3 | 2.42 ± 0.18 | – | –
FLYMLMEYVPGGELFSYLRNRGRF [PRKX] | 2.75 ± 0.29 | 2.42 ± 0.28 | – | –
DVTDEHGEREPFAETDEHTGANTK [FAM9B] | 5.49 ± 0.12 | 5.5 ± 0.065 | – | –
SWNVAVKFLMARKFDVLRAIELFH [PTPN9] | 2.18 ± 0.25 | 2.31 ± 0.6 | – | –
ATPIVPVVPPTPPVVKKKGVKRKA [BRD3] | 5.33 ± 0.26 | 5.27 ± 0.12 | – | –
LWTSFIQSVSYSKLLSVIVWMLML [P2RY14] | 3.32 ± 0.53 | 3.4 ± 0.21 | – | –
PLESAFDHEDFTGSSSLGFTSSPS [FCHO1] | 4.81 ± 0.35 | 5.07 ± 0.15 | – | –
MGDEEKRNRAITARRQHLKSVMLQ [TNNI2] | 4.06 ± 0.3 | 4.12 ± 0.21 | – | –
KVLFALCALNALTTTVCLVAAALR [FAM189A2] | 3.13 ± 0.6 | 3.3 ± 0.21 | – | –
CEENEQSLPPPAGLNSSWVELPMN [BNIP3L] | 4.65 ± 0.34 | 4.41 ± 0.25 | – | –
ASMSKRRCGVGVSVLDDLLYAVGG [KLHL20] | 2.62 ± 0.14 | 2.13 ± 0.44 | – | –
CEVMQEIVDQVLEEDFDSEQLSVL [INTS3] | 5.06 ± 0.14 | 5.16 ± 0.12 | – | –
QEEMAEDPLTYKSRLMVVVKMDSS [RHOBTB2] | 3.45 ± 0.27 | 3.49 ± 0.24 | – | –
CGTPNYLSPEVLNKQGHGCESDIW [PLK2] | 2.78 ± 0.28 | 2.83 ± 0.28 | – | –
EAFYYIHNLVVACEIQVRTLASAG [ADD1] | 2.93 ± 0.63 | 2.98 ± 0.57 | – | –

Sequence | protein stability index [1] | protein stability index [2] | protein stability index [3] | protein stability index [4]
VALLTGKFSNIVDKFVIVDCRYPY [CDC25B] | 2.45 ± 1.7 | 2.59 ± 1.2 | – | –
WAVQGQNVLHGYPKDIYSSFGFPR [MMP1] | 2.39 ± 0.18 | 2.15 ± 0.057 | – | –
GAYKSSTICYCPEKGTWTELEGDV [KLHL14] | 4.22 ± 0.32 | 4.38 ± 0.32 | – | –
SGDAAAQPAFTGIKGKEGSALTEG [EPB41L3] | 5.55 ± 0.24 | 5.32 ± 0.33 | – | –
EYNYDWWEKKPFSEDVNWGYEKRN [CHGB] | 3.17 ± 0.21 | 3.19 ± 0.23 | – | –
GMVRAHGVRVSVPCPSTTCCRACS [BET1L] | 3.04 ± 0.29 | 3.4 ± 0.51 | – | –
RLMDVCATSRTDREIKVTLVFEHV [CDK4] | 2.65 ± 0.57 | 2.5 ± 0.15 | – | –
SKDCKPPVYLLLELEDKDGLQSAQ [MYBL2] | 3.93 ± 0.18 | 3.87 ± 0.12 | – | –
TYSGKAADVWSLGVMLYTLLVGRY [TRIB1] | 2.42 ± 0.36 | 2.21 ± 0.042 | – | –
ETIQGFWLLTKIDHWNNEKERILL [TPRG1] | 2.59 ± 0.44 | 2.73 ± 0.59 | – | –
SFELLVRFFACPSKATFSRNIMNL [KCNA3] | 3.16 ± 0.46 | 2.96 ± 0.25 | – | –
EVEAKFKRYESHPVCADLQAKILQ [CHCHD3] | 3.66 ± 0.21 | 3.58 ± 0.078 | – | –
PTLGGGFHVNLGKESRAQTLQNGR [BRF1] | 4.04 ± 0.47 | 4.14 ± 0.33 | – | –
YPENDWDTAAPVPQKDLEIFKNF [PRKX] | – | – | 5.08 ± 0.33 | 5.33 ± 0.25
MGTRDDEYDYLFKVVLIGDSGVGK [RAB11A] | 2.27 ± 0.41 | 2.44 ± 0.35 | – | –
DRFLAGVPTPKSHLQLLGAVCMFL [CCND2] | 2.63 ± 0.2 | 2.27 ± 0.21 | – | –
WAAKAPGASSREEPPEEPEQCPVI [SPDEF] | 5.28 ± 0.31 | 5.27 ± 0.2 | – | –
QAQPLRTTSTLASSLPGHAAKTLP [EHMT1] | 4.33 ± 0.16 | 4.4 ± 0.29 | – | –
INSGYETRRKKGKKDKDISKEKDT [KMT2E] | 4.59 ± 0.13 | 4.78 ± 0.16 | – | –
GNFESLDLAEFAKKQPWWRKLFGQ [FUNDC2] | 3.31 ± 0.24 | 3.29 ± 0.35 | – | –
LGPCVVGYGIYYFIYSTWKGRTIY [SAT2] | 2.97 ± 0.28 | 2.97 ± 0.51 | – | –
MGPAPRARPWTRDSASLPRKPSVP [RASAL3] | 4.08 ± 0.14 | 4.12 ± 0.23 | – | –
METGRWKKINTEGDVPPSMSGSCA [KLHDC2] | 4.01 ± 0.34 | 4.21 ± 0.097 | – | –

Sequence | protein stability index [1] | protein stability index [2] | protein stability index [3] | protein stability index [4]
AIDQYRVCQEVLERSRDVVDDVSV [RHOBTB2] | 4.66 ± 0.31 | 4.78 ± 0.13 | – | –
EKEKEKHKVKAEEEKKAKVAPPAK [BRD3] | 5.38 ± 0.34 | 5.56 ± 0.14 | – | –
YQPKRYALSPKTTITMAHLLAARE [FAM98B] | 2.31 ± 0.091 | 2.6 ± 0.39 | – | –
NLQSLKFQGGHGPAATLLRRSKT [RIPK4] | – | – | 3.18 ± 0.21 | 3.27 ± 0.14
PFYPEVELNFISVFWPQLPNGLEA [MMP1] | 2.61 ± 0.28 | 2.62 ± 0.52 | – | –
DETHFGKMGSYYINRTFFFDVHPP [POMT2] | 2.45 ± 0.21 | 2.23 ± 0.33 | – | –
ATGMEVGWYRPPFSRVVHLYRNGK [MOG] | 3.12 ± 0.36 | 2.98 ± 0.14 | – | –
RENGNNSSDKVRGIETLESVPIIG [PHTF1] | 4.8 ± 0.33 | 4.53 ± 0.36 | – | –
VRGEDSGRKPERRRLKTTRLKEYT [DAPK3] | 3.97 ± 0.45 | 4.51 ± 0.17 | – | –
KKDILLVNDHLLNFVRERTLDKRW [PDS5B] | 2.13 ± 0.26 | 2.35 ± 0.18 | – | –
FIIEYYNIRPADSRWVRDPRYRED [FBXO34] | 2.44 ± 0.53 | 2.26 ± 0.29 | – | –
SNQEVLQSCLLVIFATKPHVLPAV [PYCR3] | 3.34 ± 0.4 | 3.01 ± 0.34 | – | –
PPHKHVARPTEVLAGTQLLYAFFT [TRIB3] | 2.46 ± 0.21 | 2.43 ± 0.15 | – | –
PKDENERSTCNVVQDEFLDTPCTN [DLC1] | 5.45 ± 0.15 | 5.41 ± 0.13 | – | –
AMKSVHENMDLNKIDDLMQEITEQ [CHMP4C] | 4.7 ± 0.16 | 4.85 ± 0.52 | – | –
LATSPITVGDLGIVRRRSRDVPES [YJU2B] | 4.42 ± 0.12 | 4.42 ± 0.2 | – | –
NRNHNEGMVTRCIIEVLSNALSKS [CHGB] | 2.25 ± 0.24 | 2.1 ± 0.27 | – | –
AGALAQGGGPSATEWACILRRKTP [C6orf223] | 3.56 ± 0.17 | 3.75 ± 0.29 | – | –
WSIFYFFKSFQYPLPWSECPVVRN [SLC6A17] | 2.41 ± 0.17 | 2.59 ± 0.47 | – | –
DFQGRILSVDPEEEREEGPPRIPQ [RHOBTB1] | 5.29 ± 0.31 | 5.22 ± 0.22 | – | –
RMIPGQPPASARRLSVPRDSACDE [IRX6] | 5.29 ± 0.24 | 5.29 ± 0.15 | – | –
GEKPHRCPQCGKCFARKSQLTGHQ [ZNF449] | 4.66 ± 0.23 | 4.85 ± 0.31 | – | –
NVPPIPVETLVKKKIPIISNAMLV [ACSBG2] | 2.4 ± 0.21 | 2.38 ± 0.27 | – | –

Sequence | protein stability index [1] | protein stability index [2] | protein stability index [3] | protein stability index [4]
SGKSEISELRRTMQALEIELQSQL [KRT17] | 3.58 ± 0.35 | 3.68 ± 0.15 | – | –
MTQVITRTQEEKLEHVRALIKKYS [TRIM55] | 2.68 ± 0.11 | 2.94 ± 0.3 | – | –
EDELSLVKGSRVTVMEKCSDGWWR [NCK2] | 3.68 ± 0.18 | 3.69 ± 0.32 | – | –
SAMALVKHSVLLSASRKSAEQLRI [WEE1] | 2.06 ± 0.093 | 2.16 ± 0.13 | – | –
SEHLKQRREVAKTVFCLVVIFALC [EDNRA] | 2.58 ± 1.3 | 3.31 ± 0.89 | – | –
APHSQGEYDVYSTFQSHEPEFDYL [PPP2R2C] | 4.22 ± 0.19 | 4.13 ± 0.2 | – | –
REEDFPSLREYNDFLEEVEEIVFN [MNAT1] | 3.82 ± 0.16 | 3.73 ± 0.28 | – | –
VLSSWSRAFVSIQEEMAEDPLTYK [RHOBTB2] | 2.89 ± 0.14 | 3.17 ± 0.6 | – | –
HVKMMLSGVCLFAVFIALLPILGH [PTGFR] | 2.97 ± 0.83 | 2.79 ± 0.78 | – | –
SDTPYDSSASYEKENEMMKSHVMD [IKZF1] | 5.2 ± 0.31 | 5.13 ± 0.2 | – | –
RPNDDSLAFLDKIKSVKESLQESV [IQUB] | 3.64 ± 0.034 | 3.34 ± 0.32 | – | –
NLLRDDRVLQNLLTIEERYLPQCS [CCND2] | 2.49 ± 0.26 | 2.58 ± 0.35 | – | –
GLGNTWPGASGSAQSLDRLGIMGA [ATP23] | 3.3 ± 0.24 | 3.48 ± 0.3 | – | –
LETMARNEVIADINCKGRSKSNLG [OSBPL1A] | 4.46 ± 0.39 | 4.38 ± 0.39 | – | –
EQKRLERLQRKLVEPKHCFTSPDY [SDE2] | 3.25 ± 0.35 | 3.62 ± 0.26 | – | –
ALWCSGHLNGHAMCQTKHSPWADG [ADAMTS4] | 2.48 ± 0.38 | 2.27 ± 0.47 | – | –
EDKCPGNYTNPLKVQTVIILGKVI [TMEM192] | 2.47 ± 1 | 2.29 ± 0.37 | – | –
CNSHMPYGYAAQARARERERLAHS [KCNA4] | 3.1 ± 0.23 | 3.13 ± 0.31 | – | –
NQGYLSEAGASLVDQKLELNIVPR [PI4K2A] | 4.05 ± 0.23 | 4.33 ± 0.28 | – | –
PPWFEGLESRFQSKSGYLRYSCES [DFFB] | 2.51 ± 0.19 | 2.54 ± 0.2 | – | –
